Experimental data from patent publication US20090326205A1 (LIV TECH, published 2009).

T1: purified recombinant hFA-1 protein (hDlk-1 extracellular region, FA-1) (human, UniProt P80370 24-303)
T1 construct: also called human FA1; purified FA-1; not shown: C-terminal Myc tag and His tag from vector pcDNA4/Myc-His
T1 sequence: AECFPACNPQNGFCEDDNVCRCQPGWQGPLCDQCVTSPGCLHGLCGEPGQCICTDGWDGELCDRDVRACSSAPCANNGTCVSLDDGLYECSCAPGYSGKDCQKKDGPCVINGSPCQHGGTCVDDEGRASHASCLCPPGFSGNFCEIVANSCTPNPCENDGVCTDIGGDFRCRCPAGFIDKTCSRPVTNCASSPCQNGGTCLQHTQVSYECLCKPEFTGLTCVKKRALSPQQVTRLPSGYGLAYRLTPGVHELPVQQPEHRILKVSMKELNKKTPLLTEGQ

T2: hDlk-1 EGF-like motif deletion construct EGF (4-6) expressed on COS-7 cells (human, UniProt P80370 131-244)
T2 construct: also called hDlk (EGF 4-6)-pME18-CHFX; hdlk-EGF (4-6)/pME18S-CFHX
T2 sequence: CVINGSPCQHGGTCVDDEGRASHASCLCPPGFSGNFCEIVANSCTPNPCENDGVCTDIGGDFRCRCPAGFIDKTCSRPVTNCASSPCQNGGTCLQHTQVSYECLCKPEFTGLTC

T3: hDlk-1 EGF-like motif deletion construct EGF (5-6) expressed on COS-7 cells (human, UniProt P80370 170-383)
T3 construct: also called hDlk (EGF 5-6)-pME18-CHFX
T3 sequence: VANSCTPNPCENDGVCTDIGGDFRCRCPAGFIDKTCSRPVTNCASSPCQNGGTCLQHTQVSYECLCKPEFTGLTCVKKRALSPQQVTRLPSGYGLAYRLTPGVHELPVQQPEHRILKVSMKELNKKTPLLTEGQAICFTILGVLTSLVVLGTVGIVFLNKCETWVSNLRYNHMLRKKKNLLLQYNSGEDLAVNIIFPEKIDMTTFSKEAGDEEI

B1: anti-hDlk-1 monoclonal antibody clone DI-2-14 (mouse IgG1) (antibody, V domains shown)
VH: EVQLQQSGAELVKPGASVKLSCTASGFNIRDTYIHWVKQRPEQGLEWIGRIDPPNGNLKYDPKFQGKATITADTSSNTAYLQFSSLTSEDTAVYYCARSDGYSFAYWGQGTLVTVSA
VL: DIVMTQAAPSVPVTPGESVSISCRSSKSLLHSNGNTYLYWFLQRPGQSPQLLIYRMSNLASGVPDRFSGSGSGTAFTLRISRVEAEDVGVYYCMQHVEYPFTFGSGTKLEIK
notes: also called mouse DI-2-14; mouse DI-2-14 antibody
B2: chimeric DI-2-14 antibody (ChDI-2-14), mouse-human chimeric DI-2-14 IgG1/K (antibody, V domains shown)
VH: B1 VH
VL: B1 VL
notes: domain: human γ1 heavy chain constant region; not shown: human kappa chain constant region (CL) of vector pChDI-2-14

Columns and labels:
[1] = biological target: T1, purified recombinant hFA-1 protein …; test: ELISA, purified recombinant hFA-1 (0.5 to 1 µg/mL) immobilized, antibody dilution series
Method: ELISA was carried out in the same manner as described in Example 1, using an ELISA plate on which the purified recombinant hFA-1 protein (0.5 to 1 μg/mL) had been immobilized. Specifically, the ELISA plate was washed with a washing buffer 3 times and it was then blocked using a blocking solution at room temperature for 1 hour (or at 4° C. overnight). Thereafter, the plate was washed with a washing buffer 2 times and a mouse DI-2-14 antibody and a ChDI-2-14 antibody, wherein dilution series were produced using an ELISA buffer, were added to the plate, so that they were allowed to react (at 4° C. overnight). Thereafter, the plate was washed with a washing buffer 3 times and it was then allowed to react with HRP-labeled anti-mouse IgG (final concentration: 1 μg/mL) or HRP-labeled anti-human IgG (final concentration: 1 μg/mL) (both products manufactured by GE Healthcare), which had been diluted with a blocking solution.

[2] = biological target: T2, hDlk-1 EGF-like motif deletion …; test: FACS and immunostaining of transfected COS-7 cells
Excerpt: (§1) Each of expression vectors hDlk (EGF 1-2)-pME-CHFX, hDlk (EGF 1-3)-pME-CHFX, hDlk (EGF 3-4)-pME-CHFX, hDlk (EGF 4-6)-pME18-CHFX and hDlk (EGF 5-6)-pME18-CHFX (FIG. 7) was introduced into COS-7 cells and they were then subjected to FACS analysis and the immunostaining of Cytospin specimens, so as to examine sites in a region containing 6 EGF-like motifs existing in the FA-1 region (extracellular region) of hDlk-1, which were recognized by each anti-hDlk-1 monoclonal antibody.
(§2) It has been reported that, among mouse IgG isotypes, IgG2a and IgG2b have strong antibody-dependent cytotoxic activity (ADCC) and that the ADCC of IgG1 is low (please refer to Kipps, T. J. et al., 1985). The isotype of the clone DI-2-14 is mouse IgG1.

[3] = biological target: T3, hDlk-1 EGF-like motif deletion …; test: FACS and immunostaining of transfected COS-7 cells
Excerpt: as §1, §2

[4] = biological target: T1, purified recombinant hFA-1 protein …; test: ELISA method of Djavadi-Ohaniance: antibody (0.5 nM) equilibrated with hFA-1 (3.125-50 nM), then added to an hFA-1-coated plate
Method: Specifically, the purified recombinant hFA-1 protein (1 μg/mL) was added to a 96-well culture plate (Corning) to fix as an antigen (at room temperature for 1 hour). Subsequently, the plate was washed with PBS 3 times and 2% skim milk (PBS solution) was added thereto for blocking (at room temperature for 1 hour). After the plate had been washed with PBS 2 times, an antigen-antibody complex formed by previously mixing an antigen solution (a purified hFA-1 protein; 50, 25, 12.5, 6.25 and 3.125 nM) with each clone of the anti-hDlk-1 monoclonal antibody (0.5 nM) and then equilibrating the mixture was added to the aforementioned ELISA plate for a reaction (at room temperature for 1 hour). After the plate had been washed with PBS 3 times, it was allowed to react with HRP-labeled anti-mouse IgG (final concentration: 1 μg/mL) or HRP-labeled anti-rat IgG (final concentration: 1 μg/mL) (both of which were available from GE Healthcare Biosciences), which had been diluted with a blocking solution, at room temperature for 1 hour.
Subsequently, the affinity (dissociation constant) of these clones for an antigen was calculated by the aforementioned ELISA method. […] The affinity of the clone 2-13 for the purified recombinant hFA-1 was not high and thus the Kd value thereof could not be calculated by the aforementioned method.

Row | Binder | EC50 [1] [µg/mL] | binding result [2] | binding result [3] | Kd [4] [nM]
1 | B1 | 0.01 | no binding | no binding | 9.26
2 | B2 | 0.01 |  |  | 
